Experimental data taken from IntAct's records for PubMed 31412244.

B1: Autophagy-related protein 2 homolog A (Homo sapiens), Q2TAZ0 (parent)
chain: MSRWLWPWSNCVKERVCRYLLHHYLGHFFQEHLSLDQLSLDLYKGSVALRDIHLEIWSVNEVLESMESPLELVEGFVGSIEVAVPWAALLTDHCTVRVSGLQLTLQPRRGPAPGAADSQSWASCMTTSLQLAQECLRDGLPEPSEPPQPLEGLEMFAQTIETVLRRIKVTFLDTVVRVEHSPGDGERGVAVEVRVQRLEYCDEAVRDPSQAPPVDVHQPPAFLHKLLQLAGVRLHYEELPAQEEPPEPPLQIGSCSGYMELMVKLKQNEAFPGPKLEVAGQLGSLHLLLTPRQLQQLQELLSAVSLTDHEGLADKLNKSRPLGAEDLWLIEQDLNQQLQAGAVAEPLSPDPLTNPLLNLDNTDLFFSMAGLTSSVASALSELSLSDVDLASSVRSDMASRRLSAQAHPAGKMAPNPLLDTMRPDSLLKMTLGGVTLTLLQTSAPSSGPPDLATHFFTEFDATKDGPFGSRDFHHLRPRFQRACPCSHVRLTGTAVQLSWELRTGSRGRRTTSMEVHFGQLEVLECLWPRGTSEPEYTEILTFPGTLGSQASARPCAHLRHTQILRRVPKSRPRRSVACHCHSELALDLANFQADVELGALDRLAALLRLATVPAEPPAGLLTEPLPAMEQQTVFRLSAPRATLRLRFPIADLRPEPDPWAGQAVRAEQLRLELSEPQFRSELSSGPGPPVPTHLELTCSDLHGIYEDGGKPPVPCLRVSKALDPKSTGRKYFLPQVVVTVNPQSSSTQWEVAPEKGEELELSVESPCELREPEPSPFSSKRTMYETEEMVIPGDPEEMRTFQSRTLALSRCSLEVILPSVHIFLPSKEVYESIYNRINNDLLMWEPADLLPTPDPAAQPSGFPGPSGFWHDSFKMCKSAFKLANCFDLTPDSDSDDEDAHFFSVGASGGPQAAAPEAPSLHLQSTFSTLVTVLKGRITALCETKDEGGKRLEAVHGELVLDMEHGTLFSVSQYCGQPGLGYFCLEAEKATLYHRAAVDDYPLPSHLDLPSFAPPAQLAPTIYPSEEGVTERGASGRKGQGRGPHMLSTAVRIHLDPHKNVKEFLVTLRLHKATLRHYMALPEQSWHSQLLEFLDVLDDPVLGYLPPTVITILHTHLFSCSVDYRPLYLPVRVLITAETFTLSSNIIMDTSTFLLRFILDDSALYLSDKCEVETLDLRRDYVCVLDVDLLELVIKTWKGSTEGKLSQPLFELRCSNNVVHVHSCADSCALLVNLLQYVMSTGDLHPPPRPPSPTEIAGQKLSESPASLPSCPPVETALINQRDLADALLDTERSLRELAQPSGGHLPQASPISVYLFPGERSGAPPPSPPVGGPAGSLGSCSEEKEDEREEEGDGDTLDSDEFCILDAPGLGIPPRDGEPVVTQLHPGPIVVRDGYFSRPIGSTDLLRAPAHFPVPSTRVVLREVSLVWHLYGGRDFGPHPGHRARTGLSGPRSSPSRCSGPNRPQNSWRTQGGSGRQHHVLMEIQLSKVSFQHEVYPAEPATGPAAPSQELEERPLSRQVFIVQELEVRDRLASSQINKFLYLHTSERMPRRAHSNMLTIKALHVAPTTNLGGPECCLRVSLMPLRLNVDQDALFFLKDFFTSLVAGINPVVPGETSAEARPETRAQPSSPLEGQAEGVETTGSQEAPGGGHSPSPPDQQPIYFREFRFTSEVPIWLDYHGKHVTMDQVGTFAGLLIGLAQLNCSELKLKRLCCRHGLLGVDKVLGYALNEWLQDIRKNQLPGLLGGVGPMHSVVQLFQGFRDLLWLPIEQYRKDGRLMRGLQRGAASFGSSTASAALELSNRLVQAIQATAETVYDILSPAAPVSRSLQDKRSARRLRRGQQPADLREGVAKAYDTVREGILDTAQTICDVASRGHEQKGLTGAVGGVIRQLPPTVVKPLILATEATSSLLGGMRNQIVPDAHKDHALKWRSDSAQD
partner: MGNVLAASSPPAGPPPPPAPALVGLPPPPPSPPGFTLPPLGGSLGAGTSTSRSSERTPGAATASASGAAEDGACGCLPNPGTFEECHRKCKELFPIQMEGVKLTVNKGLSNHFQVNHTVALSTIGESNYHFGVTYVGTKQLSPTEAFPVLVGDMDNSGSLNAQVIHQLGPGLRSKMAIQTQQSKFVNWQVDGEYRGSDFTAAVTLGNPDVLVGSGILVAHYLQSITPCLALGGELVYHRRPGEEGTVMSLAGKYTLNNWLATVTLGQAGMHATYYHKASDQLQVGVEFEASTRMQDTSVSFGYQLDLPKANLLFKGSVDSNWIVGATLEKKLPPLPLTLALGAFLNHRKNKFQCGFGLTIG
B2: Autophagy-related protein 2 homolog A (Homo sapiens), Q2TAZ0 (parent)
chain: B1 chain
partner: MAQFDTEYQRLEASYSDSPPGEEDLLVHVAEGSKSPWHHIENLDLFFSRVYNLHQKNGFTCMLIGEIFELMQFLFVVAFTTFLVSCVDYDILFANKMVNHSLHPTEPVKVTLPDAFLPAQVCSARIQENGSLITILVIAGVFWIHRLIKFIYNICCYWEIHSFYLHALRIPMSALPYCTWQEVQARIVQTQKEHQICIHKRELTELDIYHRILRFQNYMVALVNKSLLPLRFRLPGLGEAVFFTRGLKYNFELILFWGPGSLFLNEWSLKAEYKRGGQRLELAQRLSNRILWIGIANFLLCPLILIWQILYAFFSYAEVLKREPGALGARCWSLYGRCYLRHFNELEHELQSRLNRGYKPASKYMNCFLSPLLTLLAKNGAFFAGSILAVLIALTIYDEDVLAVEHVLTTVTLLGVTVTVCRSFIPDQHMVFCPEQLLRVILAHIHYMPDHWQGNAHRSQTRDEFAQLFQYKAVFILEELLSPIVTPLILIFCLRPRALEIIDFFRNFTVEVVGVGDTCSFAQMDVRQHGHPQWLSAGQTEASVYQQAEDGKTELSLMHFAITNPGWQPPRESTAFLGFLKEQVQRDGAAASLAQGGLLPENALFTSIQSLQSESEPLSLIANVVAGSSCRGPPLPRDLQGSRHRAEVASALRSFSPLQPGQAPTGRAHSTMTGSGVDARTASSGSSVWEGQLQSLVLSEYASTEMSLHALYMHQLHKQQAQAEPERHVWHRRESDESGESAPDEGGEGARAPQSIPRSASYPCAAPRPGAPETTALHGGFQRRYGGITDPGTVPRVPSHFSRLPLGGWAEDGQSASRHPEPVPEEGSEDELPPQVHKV

Variants of: B1
Details: with tom40_human TOMM40, O96008
R1777A;R1780A;R1784A was tested, and the “effect of a mutation on the interaction” value was “decreasing interaction strength”.
R1777A;R1780A;R1784A;L1798A;L1800A;L1804A was tested, and the “effect of a mutation on the interaction” value was “decreasing interaction strength”.
L1798A;L1800A;L1804A was tested, and the “effect of a mutation on the interaction” value was “disrupting interaction strength”.

Variants of: B2
Details: with atg9a_human ATG9A
With Y1395A;F1396A;S1397A the “effect of a mutation on the interaction” value was “disrupting interaction strength”.
